T1: Human CCR4 expressed on CHO-S cells (human, UniProt P51679 1-360)
T1 construct: whole, on cells; also called CCR4-expressing CHO-S cells
T1 sequence (looked up): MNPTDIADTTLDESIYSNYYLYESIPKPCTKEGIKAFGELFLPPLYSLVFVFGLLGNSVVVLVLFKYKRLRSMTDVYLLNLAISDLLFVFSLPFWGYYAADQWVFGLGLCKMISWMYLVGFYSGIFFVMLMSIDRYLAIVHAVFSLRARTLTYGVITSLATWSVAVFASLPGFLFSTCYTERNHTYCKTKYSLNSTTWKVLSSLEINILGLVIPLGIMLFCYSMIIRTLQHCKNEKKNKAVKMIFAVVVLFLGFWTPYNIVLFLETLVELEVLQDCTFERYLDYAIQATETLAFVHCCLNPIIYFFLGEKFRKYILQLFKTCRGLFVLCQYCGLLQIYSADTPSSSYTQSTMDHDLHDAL


Columns and labels:
[1] = target: T2, CCR8-NT.MBP (CCR8 N-terminus peptide aa 1-35 fused with maltose binding protein); experiment: ForteBio Octet, antibody captured on AHC biosensors, CCR8-NT.MBP as analyte
[2] = target: T1, Human CCR4 expressed on CHO-S cells; experiment: flow cytometry
[3] = target: T3, Human CCR8 (C-C chemokine receptor type 8) expressed on CHO-S cells (human, UniProt P51685 1-355); experiment: KinExA, on-cell affinity
T3 construct: also called huCCR8; human CCR8-expressing CHO-S cells
T3 sequence (P51685 whole entry): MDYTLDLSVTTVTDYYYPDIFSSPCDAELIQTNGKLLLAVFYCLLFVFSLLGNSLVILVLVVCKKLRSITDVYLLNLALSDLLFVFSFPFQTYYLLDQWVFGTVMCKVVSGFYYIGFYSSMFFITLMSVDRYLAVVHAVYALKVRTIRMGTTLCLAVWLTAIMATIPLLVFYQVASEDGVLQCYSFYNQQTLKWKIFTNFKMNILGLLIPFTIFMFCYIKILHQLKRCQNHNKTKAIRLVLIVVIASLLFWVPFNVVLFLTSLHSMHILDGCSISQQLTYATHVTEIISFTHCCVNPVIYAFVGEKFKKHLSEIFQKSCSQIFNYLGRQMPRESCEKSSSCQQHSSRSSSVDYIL

[4] = target: T3, Human CCR8 (C-C chemokine receptor type …); experiment: flow cytometry, human CCR8-overexpressing against parental CHO-S cells
Protocol: The first category of variant (single substitution mutation in the CDR H3) included variants in which each amino acid residue of the heavy chain CDR 3 (i.e., , CDR H3) was iteratively substituted with an alanine residue.
CCR8 binding was determined using flow cytometry according to the same methods used in Example 4, Briefly, antibodies were screened for specific binding to human CCR8 by flow cytometry using human CCR8-overexpressing and parental CHO—S cell line. Antibodies specifically binding to human CCR8 were also tested for binding to CCR4 by flow cytometry.

[5] = target: T3, Human CCR8 (C-C chemokine receptor type …); experiment: cell-based or functional assay
[6] = target: T2, CCR8-NT.MBP (CCR8 N-terminus peptide aa …); experiment: ForteBio Octet, antibody at 10 µg/ml captured on AHC biosensors, 300 nM CCR8-NT.MBP as analyte
Description: (amino acids 406-440 of SEQ ID NO: 128), Amino acids 1-364 of SEQ ID NO: 128 represent the maltose binding protein.

Binder	Flow (fold over parent) [4]	ADCC (Fold Induction) [5]	Octet (nm shift) [6]	also measured
7B16-H2.001 (CDR H2 swapped mutant of 7-B16) (antibody, V domains shown, also called CDR swapped variant H2) VH: EVQLVESGGGLVQPKGSLKLSCAASGFTFNTYAMNWVRQAPGKGLEWVARIRSKANSYATAYAASVKDRFTISRDDSQSMLYLQMNNLKTEDTAMYYCVRGLLRYRFFDVWGAGTTVTVSS VL: DIVMTQAEPSVPVTPGESISISCRSSKSLLHSNGNTYLYWFLQRPGQSPQLLIYRMSNLASGVPDRFSGSGSGTAFTLRISRVEAEDVGVYYCMQHLEYPFTFGGGTKLEIKR				Octet Response (nm) [1]: 0.299 nm
Humanized 7-B16.001 (antibody, human IgG1, kappa, V domains shown, Humanized) VH: EVQLVESGGGLVQPGGSLKLSCAASGFTFNTYAMNWVRQASGKGLEWVGRIRSKSNNYATYYADSVKDRFTISRDDSKNTAYLQMNSLKTEDTAVYYCVRGLLRYRFFDVWGQGTTVTVSS VL: DIVMTQSPLSLPVTPGEPASISCRSSKSLLHSNGNTYLYWFLQKPGQSPQLLIYRMSNLASGVPDRFSGSGSGTDFTLKISRVEAEDVGVYYCMQHLEYPFTFGGGTKVEIKR				binding result [2]: no binding; Kd [3]: 0.0159 nM; koff [3]: 7.93e-05 s⁻¹; kon [3]: 4.99e+06 M⁻¹ s⁻¹
7B16.008 (CDR H3 alanine scan variant of 7-B16) (antibody, human IgG1, kappa, V domains shown) VH: EVQLVESGGGLVQPKGSLKLSCAASGFTFNTYAMNWVRQAPGKGLEWVARIRSKSNNYATYYADSVKDRFTISRDDSQSMLYLQMNNLKTEDTAMYYCVRGLLRARFFDVWGAGTTVTVSS VL: DIVMTQAEPSVPVTPGESISISCRSSKSLLHSNGNTYLYWFLQRPGQSPQLLIYRMSNLASGVPDRFSGSGSGTAFTLRISRVEAEDVGVYYCMQHLEYPFTFGGGTKLEIKR	9 fold	24.8 fold	0.436 nm	
7B16-H3C3.001 (CDR H3 combo mutant of 7-B16) (antibody, V domains shown) VH: EVQLVESGGGLVQPKGSLKLSCAASGFTFNTYAMNWVRQAPGKGLEWVARIRSKSNNYATYYADSVKDRFTISRDDSQSMLYLQMNNLKTEDTAMYYCVRGLLRARFFDAWGAGTTVTVSS VL: DIVMTQAEPSVPVTPGESISISCRSSKSLLHSNGNTYLYWFLQRPGQSPQLLIYRMSNLASGVPDRFSGSGSGTAFTLRISRVEAEDVGVYYCMQHLEYPFTFGGGTKLEIKR				Octet Response (nm) [1]: 0.376 nm
7B16.013 (CDR H3 alanine scan variant of 7-B16) (antibody, human IgG1, kappa, V domains shown) VH: EVQLVESGGGLVQPKGSLKLSCAASGFTFNTYAMNWVRQAPGKGLEWVARIRSKSNNYATYYADSVKDRFTISRDDSQSMLYLQMNNLKTEDTAMYYCVRGLLRYRFFDAWGAGTTVTVSS VL: DIVMTQAEPSVPVTPGESISISCRSSKSLLHSNGNTYLYWFLQRPGQSPQLLIYRMSNLASGVPDRFSGSGSGTAFTLRISRVEAEDVGVYYCMQHLEYPFTFGGGTKLEIKR	9 fold	25.9 fold	0.383 nm	
7B16.006 (CDR H3 alanine scan variant of 7-B16) (antibody, human IgG1, kappa, V domains shown) VH: EVQLVESGGGLVQPKGSLKLSCAASGFTFNTYAMNWVRQAPGKGLEWVARIRSKSNNYATYYADSVKDRFTISRDDSQSMLYLQMNNLKTEDTAMYYCVRGLARYRFFDVWGAGTTVTVSS VL: DIVMTQAEPSVPVTPGESISISCRSSKSLLHSNGNTYLYWFLQRPGQSPQLLIYRMSNLASGVPDRFSGSGSGTAFTLRISRVEAEDVGVYYCMQHLEYPFTFGGGTKLEIKR	8 fold	14.1 fold	0.22 nm	
7B16.002 (CDR H3 alanine scan variant of 7-B16) (antibody, human IgG1, kappa, V domains shown) VH: EVQLVESGGGLVQPKGSLKLSCAASGFTFNTYAMNWVRQAPGKGLEWVARIRSKSNNYATYYADSVKDRFTISRDDSQSMLYLQMNNLKTEDTAMYYCARGLLRYRFFDVWGAGTTVTVSS VL: DIVMTQAEPSVPVTPGESISISCRSSKSLLHSNGNTYLYWFLQRPGQSPQLLIYRMSNLASGVPDRFSGSGSGTAFTLRISRVEAEDVGVYYCMQHLEYPFTFGGGTKLEIKR	8 fold	22.9 fold	0.469 nm	
7B16.004 (CDR H3 alanine scan variant of 7-B16) (antibody, human IgG1, kappa, V domains shown) VH: EVQLVESGGGLVQPKGSLKLSCAASGFTFNTYAMNWVRQAPGKGLEWVARIRSKSNNYATYYADSVKDRFTISRDDSQSMLYLQMNNLKTEDTAMYYCVRALLRYRFFDVWGAGTTVTVSS VL: DIVMTQAEPSVPVTPGESISISCRSSKSLLHSNGNTYLYWFLQRPGQSPQLLIYRMSNLASGVPDRFSGSGSGTAFTLRISRVEAEDVGVYYCMQHLEYPFTFGGGTKLEIKR	6 fold	19.5 fold	0.221 nm	
7B16.009 (CDR H3 alanine scan variant of 7-B16) (antibody, human IgG1, kappa, V domains shown) VH: EVQLVESGGGLVQPKGSLKLSCAASGFTFNTYAMNWVRQAPGKGLEWVARIRSKSNNYATYYADSVKDRFTISRDDSQSMLYLQMNNLKTEDTAMYYCVRGLLRYAFFDVWGAGTTVTVSS VL: DIVMTQAEPSVPVTPGESISISCRSSKSLLHSNGNTYLYWFLQRPGQSPQLLIYRMSNLASGVPDRFSGSGSGTAFTLRISRVEAEDVGVYYCMQHLEYPFTFGGGTKLEIKR	10 fold	19.8 fold	0.303 nm	
7B16-H3C1.001 (CDR H3 combo mutant of 7-B16) (antibody, V domains shown) VH: EVQLVESGGGLVQPKGSLKLSCAASGFTFNTYAMNWVRQAPGKGLEWVARIRSKSNNYATYYADSVKDRFTISRDDSQSMLYLQMNNLKTEDTAMYYCARGLLRARFFDVWGAGTTVTVSS VL: DIVMTQAEPSVPVTPGESISISCRSSKSLLHSNGNTYLYWFLQRPGQSPQLLIYRMSNLASGVPDRFSGSGSGTAFTLRISRVEAEDVGVYYCMQHLEYPFTFGGGTKLEIKR				Octet Response (nm) [1]: 0.431 nm
7B16-H3C2.001 (CDR H3 combo mutant of 7-B16) (antibody, V domains shown) VH: EVQLVESGGGLVQPKGSLKLSCAASGFTFNTYAMNWVRQAPGKGLEWVARIRSKSNNYATYYADSVKDRFTISRDDSQSMLYLQMNNLKTEDTAMYYCARGLLRYRFFDAWGAGTTVTVSS VL: DIVMTQAEPSVPVTPGESISISCRSSKSLLHSNGNTYLYWFLQRPGQSPQLLIYRMSNLASGVPDRFSGSGSGTAFTLRISRVEAEDVGVYYCMQHLEYPFTFGGGTKLEIKR				Octet Response (nm) [1]: 0.357 nm
Humanized 7-B16.033 (antibody, human IgG1, kappa, V domains shown, Humanized) VH: EVQLVESGGGLVQPGRSLRLSCTASGFTFATYAMNWVRQAPGKGLEWVARIRSKSNNYATYYADSVKDRFTISRDDSKSILYLQMNSLKTEDTAVYYCVRGLLRYRFFDVWGQGTTVTVSS VL: DIVMTQSPLSLPVTPGEPASISCRSSKSLLHSNGNTYLYWFLQKPGQSPQLLIYRMSNLASGVPDRFSGSGSGTDFTLKISRVEAEDVGVYYCMQHLEYPFTFGGGTKVEIKR				binding result [2]: no binding; Kd [3]: 0.0746 nM; koff [3]: 0.000391 s⁻¹; kon [3]: 5.25e+06 M⁻¹ s⁻¹
7B16.010 (CDR H3 alanine scan variant of 7-B16) (antibody, human IgG1, kappa, V domains shown) VH: EVQLVESGGGLVQPKGSLKLSCAASGFTFNTYAMNWVRQAPGKGLEWVARIRSKSNNYATYYADSVKDRFTISRDDSQSMLYLQMNNLKTEDTAMYYCVRGLLRYRAFDVWGAGTTVTVSS VL: DIVMTQAEPSVPVTPGESISISCRSSKSLLHSNGNTYLYWFLQRPGQSPQLLIYRMSNLASGVPDRFSGSGSGTAFTLRISRVEAEDVGVYYCMQHLEYPFTFGGGTKLEIKR	4 fold	1.36 fold	0.155 nm	
7B16.005 (CDR H3 alanine scan variant of 7-B16) (antibody, human IgG1, kappa, V domains shown) VH: EVQLVESGGGLVQPKGSLKLSCAASGFTFNTYAMNWVRQAPGKGLEWVARIRSKSNNYATYYADSVKDRFTISRDDSQSMLYLQMNNLKTEDTAMYYCVRGALRYRFFDVWGAGTTVTVSS VL: DIVMTQAEPSVPVTPGESISISCRSSKSLLHSNGNTYLYWFLQRPGQSPQLLIYRMSNLASGVPDRFSGSGSGTAFTLRISRVEAEDVGVYYCMQHLEYPFTFGGGTKLEIKR	9 fold	20 fold	0.296 nm	
Humanized 1-K17.015 (antibody, human IgG1, kappa, V domains shown, Humanized with hotspot correction) VH: EVQLVQSGAEVKKPGASVKVSCKASGYTFTSYNMHWVRQAPGQRLEWIGAIYPGQGDTSYNQKFKGRATLTADKSASTAYMELSSLRSEDTAVYYCARKGGTPFAYWGQGTLVTVSS VL: DVVMTQSPLSLPVTLGQPASISCRSSQSLVHSNAQTYLYWYQQRPGQSPRLLIYKVSNRFSGVPDRFSGSGSGTDFTLKISRVEAEDVGVYFCSQSTHVPYTFGQGTKLEIKR				binding result [2]: no binding; Kd [3]: 0.0145 nM; koff [3]: 0.000142 s⁻¹; kon [3]: 9.78e+06 M⁻¹ s⁻¹
Humanized 1-K17.044 (antibody, human IgG1, kappa, V domains shown, Humanized with hotspot correction) VH: EVQLVQSGAEVKKPGASVKVSCKASGYTFTSYNMHWVRQAPGQGLEWIGAIYPGAGDTSYNQKFKGRATLTADKSTSTAYMELSSLRSEDTAVYYCARKGGTPFAYWGQGTLVTVSS VL: DVVMTQSPLSLPVTLGQPASISCRSSQSLVHSNAATYLYWYQQRPGQSPRLLIYKVSNRFSGVPDRFSGSGSGTDFTLKISRVEAEDVGVYFCSQSTHVPYTFGQGTKLEIKR				binding result [2]: no binding; Kd [3]: 0.00805 nM; koff [3]: 6.67e-05 s⁻¹; kon [3]: 8.29e+06 M⁻¹ s⁻¹

From patent US20260116987A1 (Gilead, published 2026)
